The conditions of data set [1]: rats, cited from earlier work.
Data set [2] can be described thus: Phase I clinical study, single intravenous doses. The data set is classed as in vivo. The settings on record: single intravenous doses of 20 to 400 mg.
Data set [3] concerns MCP-1 (macrophage chemoattractant protein-1; CCL2). The settings on record: U937 cells, LPS; cited from earlier work.
Data set [4] can be described thus: Two clinical Phase II studies, intravenous doses. It counts as in vivo. The settings on record: intravenous doses of 200 mg.
The conditions of data set [5]: after heart transplantation, myocardial infarction, skeletal muscle ischemia; cited from earlier work.
For data set [6], the system named is transcription factors AP-1 and NF-κB. The settings on record: U937 cells; cited from earlier work.
The conditions of data set [7]: in vivo; cited from earlier work.
Data set [8] is described as follows: One phase I and two phase II randomized double-blind placebo-controlled clinical trials in a surgery program. The data set is classed as in vivo. From the text:
The clinical trials in the surgery development program established an intravenous single dosing scheme with perioperative administration via infusion.

A further data set has as its system 20 S proteasome. The settings on record: cited from earlier work.
[9] abbreviates: after esophageal cancer surgery.

The text below walks through data of US20230285523A1, “USE OF ELAFIN IN THE TREATMENT OF COVID-19” (priority 2021, published 2023).

No end group written: not given here.

Regarding “99mTc-elafin: 99mTc-labeled elafin used for SPECT pharmacokinetics in rats (AQEPVKGPVSTKPGSCPIILIRCAMLNPPNRCLKDTDCPGIKKCCEGSCGMACFVPQ; ends and bridges not checked; also: 99mTc label; UniProt P19957 61-117, looked up)”, in data set [1] (24 h p.i.), the “accumulation in other organs, including the brain” value is listed as “no accumulation” and the “radioactivity in the dissected kidney” value is given as 4.98±1.24 %ID/g. For the same substance, the “terminal elimination half-life in blood” value in [1] (bolus intravenous injection, blood) is 3.33 h. Besides, the “maximum accumulation in the kidney” value in data set [1] (kidney, 5 min post injection, SPECT) is reported as 8.5%±0.1%. In data set [1] (kidney, 24 h p.i.), the “share of detected radioactivity in the kidney identified as not metabolized” value is recorded as 30%.
Take “Tiprelestat: INN name of elafin; recombinant human protein of 57 amino acids, about 6 kDa, inhibitor of elastase and proteinase 3 (AQEPVKGPVSTKPGSCPIILIRCAMLNPPNRCLKDTDCPGIKKCCEGSCGMACFVPQ; listed as Homo sapiens)”: the tolerability result in data set [2] is “well tolerated”. Also, the “production of MCP-1” value in data set [3] is “inhibition of the production”. Moreover, in [4], the tolerability result was “well tolerated”. The reperfusion injury entry in data set [5] is on record as “suppresses reperfusion injury”. The “LPS-induced activation of AP-1 and NF-κB” value in data set [6] is reported as “inhibited”. The ventilator induced injury entry in [7] is “able to reduce”. In addition, in data set [8] (setting [9]), the “kidney, liver and heart organ damages” value is listed as “trend towards lower”; the “organ protective effect (length of ICU stay)” value was “organ protective effect was confirmed”. Besides, in data set [8] (one phase I and two phase II trials, surgery program), the “tolerability of intravenous application” value is recorded as “well tolerated”. Also, in data set [8] (surgery program clinical trials), the safety concerns result is recorded as “No major safety concerns were observed”. Further, the “inhibition of peptidase activities associated with the 20 S proteasome” value with 20 S proteasome was “no inhibition”.
